Substitutions are numbered along the chain they refer to.

To fix the notation:
B1: ROR1_A1 (Fab, V domains shown)
VH: EVKLVESGGGLVRPGGSLKLSCAVSGFTFSSYAMSWVRQTPEKRLEWVAAINFNRGTTYYSDTVKGRFTISRDNAKNTLYLQLSSLRSEDTAFYYCSRHRYSDYDYAMDYWGQGTSVTVSS
VL: DIVMSQSPSSMYASLGERVTITCKASQDINSYLNWFQQKPGKSPKTLIYRANRLVDGVPSRFSGSGSGHDYFLTIRSLEYEDMGIYYCLQYDEFPYTFGGGTKLEIKR
B2: ROR1_A13 (Fab, V domains shown)
VH: EVQLVETGGGLVKPGGSLKLSCAASGFTFSSYAMSWIRQTPEKRLEWVAGINSNRGTTYYPDTVKGRFTISRDNAKNTLYLQMNSLRSEDSALYYCVRHRYIDYDYAMDYWGQGTSVTVSS
VL: B1 VL with D1N, S5T, T22I, A25S, N34S, Y49F, H69Q, F72S, R76S, I106V
notes: The entries are called 'variable region' but as printed hold leader, V domain, constant domain and tag
B3: ROR1_A12 (Fab, V domains shown)
VH: B1 VH with K3Q, R13K, V24A, F53S, L83M, S97T
VL: B1 VL with V3K, S5T, N34S, K45M, I48T, Y49H, H69Q, F72S, R76S, Y80N
notes: as for B2
B4: ROR1_A14 (Fab, V domains shown)
VH: QVQLKQSGAELVKPGASVKISCKATGYTFSSYWIEWVKERPGHGLEWIGEILPGIGNTNYNEKFKGKATFTADLSSKTAYMQLSSLTSEDSAVYYCASGGYSTVYWYFDVWGAGTTVTVSS
VL: DVVMSQSPSSLAVSTGEKVTLSCKSSQSLLNSRTRKNYLAWYQQKPGQSPKLLIYWTSTRESGVPNRFTGSGSGTDFTLTISSVQAEDLAVYYCKQSYDLPWTFGGGTKLEIKR
notes: as for B2
B5: ROR1_A10 (Fab, V domains shown)
VH: EVQLVETGGGLVKPGGSLKLSCAASGFAFSSYAMSWVRQTPEKRLEWVAAINNRGGGTYYPDTVRGRFTISRDNAKNTLYLQMSSLRSADTALYYCVRHDNLNYDYAMDSWGQGTSVTVSS
VL: NIVMTQSPSSMYASLGERVTITCKASQDIYSYLSWFQQKPGKSPKTLIYRANRLVDGVPSRFSGSGSGQDYSLTISSLDYEDVGIYYCLQYDEFPYTFGSGTKLEIER
notes: as for B2
B6: ROR1_A4 (Fab, V domains shown)
VH: EVKLVESGGGLVKPGGSLKLSCAASGFTFSNYGMSWVRQTPERRLEWVAAMNNNGASTYYPDTVKGRFTISRDNAKNTLYLQMSSLRSEDTALYFCVRHNNYVDYAMDYWGQGTSVTVSS
VL: B1 VL with V3L, M4L, S5T, A13T, N34S, R53K, H69Q, F72S, R76S, Y80S
notes: as for B2
B7: ROR1_A7 (Fab, V domains shown)
VH: EVMLVESGGGLVKPGGSLKISCAASGFSFSSYAMSWVRQTPEKSLEWVAAININRGTPYYPDTVKGRFTISRDNAKNTLYLQMSSLRSEDTALYYCVRHRNSNNDYAMDYWGQGTSVTVSS
VL: B5 VL with N1D, A13T, Y30N, V55I, D79E, V83M, Y96F, E107K
notes: as for B2
B8: ROR1_A9 (Fab, V domains shown)
VH: EVQLVETGGDLVKPGGSLKLSCVASGFTFSSNAMSWVRQTPEKRLEWVAAINSKGGGTYYPDTVRGRFTISRDNAKNTLYLQVTSLRSEDTALYYCVSHGDNKYFYAMDYWGQGTSVTVSS
VL: B5 VL with Y30N, D79E, V83M, S100G, E107K
notes: as for B2
B9: ROR1_A6 (Fab, V domains shown)
VH: B1 VH with K3M, R13K, V24A, S31P, F53S, S61P, L83M, S97V, S102N, D103N
VL: B1 VL with N34S, I48T, D56E, H69Q, F72S, R76S
notes: as for B2
B10: ROR1_A5 (Fab, V domains shown)
VH: EVKLVESGGGLVKPGGSLKLSCAASGFTFSNYDMSWVRQSPEKRLEWVAAINRKGHSTYYPDTVQGRFTISRDNAKNTLYLQMSSLRSEDTALYYCVRLDDNYYFFDYWGQGTTLTVSS
VL: B1 VL with V3K, S5T, N34S, N52K, V55I, H69Q, F72S, R76S
notes: as for B2
B11: ROR1_A2 (Fab, V domains shown)
VH: B2 VH with V5L, S31T, I37V, Y80S, N84T, S91T, I102T, D103N
VL: B1 VL with V3K, S5T, N34S, H69Q, F72S, R76S
notes: as for B2
B12: ROR1_A3 (Fab, V domains shown)
VH: B1 VH with E1D, K3M, R13K, V24A, F53I, F93L
VL: B1 VL with V3Q, M4L, S5T, T22A, N34S, Y49H, H69Q, F72S, R76S, M83I
notes: as for B2

The first assay deals with T1, Tyrosine-protein kinase transmembrane receptor ROR1 (Long Isoform), human, on the cell surface (human, UniProt Q01973 30-937).
T1 construct: Endogenous ROR1 on the human cell lines A549, HT29, H69 and HEK293 and on CLL cells from a patient; also called cell-surface human ROR1; full-length ROR1
T1 sequence (Q01973 30-937 limits assumed): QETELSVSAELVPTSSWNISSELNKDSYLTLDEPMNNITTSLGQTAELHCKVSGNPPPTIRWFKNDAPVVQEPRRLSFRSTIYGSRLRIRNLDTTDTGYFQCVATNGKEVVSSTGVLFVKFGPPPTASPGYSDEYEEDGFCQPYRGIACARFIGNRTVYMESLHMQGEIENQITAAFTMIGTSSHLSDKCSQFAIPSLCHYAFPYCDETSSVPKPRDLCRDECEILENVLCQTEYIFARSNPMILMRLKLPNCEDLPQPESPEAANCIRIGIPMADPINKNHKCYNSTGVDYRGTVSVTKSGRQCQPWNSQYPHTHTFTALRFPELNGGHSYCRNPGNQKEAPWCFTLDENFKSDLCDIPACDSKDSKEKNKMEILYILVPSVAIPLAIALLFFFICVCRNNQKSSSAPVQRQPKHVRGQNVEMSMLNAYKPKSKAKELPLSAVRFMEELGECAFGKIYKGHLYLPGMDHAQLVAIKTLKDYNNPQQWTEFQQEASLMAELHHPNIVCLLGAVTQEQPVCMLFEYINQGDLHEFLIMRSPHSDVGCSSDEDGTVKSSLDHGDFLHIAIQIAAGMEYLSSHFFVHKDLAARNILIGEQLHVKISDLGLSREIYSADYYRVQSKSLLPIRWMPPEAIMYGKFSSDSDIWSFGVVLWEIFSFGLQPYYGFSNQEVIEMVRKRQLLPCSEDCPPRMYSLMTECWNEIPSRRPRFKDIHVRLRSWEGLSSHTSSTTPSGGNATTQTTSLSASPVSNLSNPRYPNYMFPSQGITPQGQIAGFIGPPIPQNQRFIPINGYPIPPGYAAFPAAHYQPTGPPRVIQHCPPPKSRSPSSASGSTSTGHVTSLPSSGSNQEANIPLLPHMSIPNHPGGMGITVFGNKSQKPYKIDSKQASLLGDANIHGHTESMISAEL
Nature of the assay: flow cytometry, legend of FIGS. 5a and 5b (members and cell lines per antibody named in paragraph 474). The method, then:
(§1) The specificity of antibodies against the ROR1 selected in Example 6 was tested by flow cytometry. To test the ability of the antibodies to bind to the cell surface ROR1 protein, the antibodies were incubated with the ROR1-expressing cells, A549, from human lung adenocarinoma. Cells were washed in FACS buffer (DPBS, 2% FBS), centrifuged and resuspended in 100 μl of the diluted primary ROR1 antibody (also diluted in FACS buffer). The antibody-A549 complex was incubated on ice for 60 min and then washed twice with FACS buffer as described above. The cell-antibody pellet was resuspended in 100 μl of the diluted secondary antibody (also diluted in FACS buffer) and incubated on ice for 60 min on ice. The pellet was washed as before and resuspended in 200 μl FACS buffer. The samples were loaded onto the BD FACScanto II flow sytometer and the data analyzed using the BD FACSdiva software. The binding of ROR1_A3, ROR1_A1, ROR1_A8 and ROR1_A14 to ROR1 expressed on A549, H69 (human small cell lung carcinoma) and HT29 (colon carcinoma) cells were also analysed using flow cytometry.
Take B1: the binding result is listed as “binds”.

Regarding B2, the binding result is listed as “binds”.

As to B3, the binding result is reported as “binds”.

As for B4, the binding result is “binds”.

For B5, the binding result is listed as “binds”.

For a further assay, the target named is T1, Tyrosine-protein kinase transmembrane …. Nature of the assay: flow cytometry on A549 cells (FIG. 5a). On the procedure: as §1
Regarding B6, the binding result is on record as “binds”.

B7: the binding result is “binds”.

For the molecule B8, the binding result is listed as “binds”.

With B9, the binding result is recorded as “binds”.

For B10, the binding result is listed as “binds”.

B11: the binding result is “binds”.

For the molecule B12, the binding result was “binds”.
